Tested on: HEK293 cells
Test: Cell cycle distribution after release from double thymidine block, flow cytometry
Assay type: cell-based
Description: In the case of a double thymidine block (DTB) synchronized at the G1/S boundary, HEK293 cells were incubated with 2 mM thymidine for 16 hours and maintained in a normal medium for 10 hours, and then 2 mM thymidine was further added thereto for 16 hours.
For analysis of cell cycles or sub-G1 DNA contents, cells were immobilized with 80% ice-cold ethanol, and stored at 4° C. The cells were stained with PBS containing 50 ug/ml of propidium iodide (PI) and 100 ug/ml of RNase A at 37° C. for 30 minutes. DNA content was analyzed by FACS Calibur flow cytometry and the results thereof were analyzed using Cellquest software (Becton-Dickinson Immunocytometry Systems, San Diego, Calif.) and Modfit LT 3.3 software. At least 10,000 cells were analyzed per sample.
To evaluate whether the reduced cell growth observed in RARRES1-overexpressing cells was due to altered cell cycle progression, HEK293 cells were transfected with green fluorescent protein (GFP) tagged-RARRES1 or -empty vector (Ctrl) according to the method of Example 1-1, and the cells were observed by live cell imaging according to Example 1-6. From now on, all data shown was regarded as isoform 1 since there was no difference between the two isoforms of RARRES1 in the above experiments, and it was named ‘RARRES1.’ In HEK293 cells transfected with a GFP control (Ctrl) according to the method of Example 1-1, the cells underwent normal cell cycle progression. A cell entered into mitosis (round shape) within 1 hour, and was separated into two daughter cells within at least 2.5 hours (see FIG. 5A, top panel). […] To confirm mitotic arrest induced by RARRES1 overexpression, GFP-control or GFP-RARRES1-overexpressing 293 cells and 293 cells transfected with a red fluorescent protein (RFP) lentivirus used to label GFP non-transfected cell, according to Example 1-3 were co-cultured, and changes in the number of fluorescence-expressing cells (see FIG. 5B) were monitored. […] Under co-culture conditions of GFP-control coupled with RFP virus-transfected cells, the numbers of both fluorescence-expressing cells were increased over time. […]

B1: RARRES1: RARRES1 isoform 1 overexpressed in HEK293 cells by transfection with an expression vector (protein)
chain: MQPRRQRLPAPWSGPRGPRPTAPLLALLLLLAPVAAPAGSGDPDDPGQPQDAGVPRRLLQQAARAALHFFNFRSGSPSALRVLAEVQEGRAWINPKEGCKVHVVFSTERYNPESLLQEGEGRLGKCSARVFFKNQKPRPTINVTCTRLIEKKKRQQEDYLLYKQMKQLKNPLEIVSIPDNHGHIDPSLRLIWDLAFLGSSYVMWEMTTQVSHYYLAQLTSVRQWKTNDDTIDFDYTVLLHELSTQEIIPCRIHLVWYPGKPLKVKYHCQELQTPEEASGTEEGSAVVPTELSNF
4 hours after release from DTB, control 21.38%
  cells in the G2/M phases: 29.85%
6 hours after release from DTB, control 77.41%
  cells in the G2/M phases: 80.91%
8 hours after release from DTB, control 45.47%
  cells in the G2/M phases: 54.46%

— patent publication US20220026415A1, “A METHOD FOR SCREENING A THERAPEUTIC AGENT FOR CANCER USING BINDING INHIBITOR OF CYCLIN-DEPENDENT KINASE 1 (CDK1)-CYCLIN B1 AND RETINOIC ACID RECEPTOR RESPONDER 1 (RARRES1) GENE KNOCKOUT ANIMAL MODEL” (NATIONAL CANCER CENTER, priority 2018, published 2022)
